The values below come from patent publication US20220396813.

Positions count from the first letter of the chain named.

Holding throughout (assay): cell_activity
Series [1] concerns T1, Rec27 WP_021170377.1 (Sporomusa sp.).
T1 sequence: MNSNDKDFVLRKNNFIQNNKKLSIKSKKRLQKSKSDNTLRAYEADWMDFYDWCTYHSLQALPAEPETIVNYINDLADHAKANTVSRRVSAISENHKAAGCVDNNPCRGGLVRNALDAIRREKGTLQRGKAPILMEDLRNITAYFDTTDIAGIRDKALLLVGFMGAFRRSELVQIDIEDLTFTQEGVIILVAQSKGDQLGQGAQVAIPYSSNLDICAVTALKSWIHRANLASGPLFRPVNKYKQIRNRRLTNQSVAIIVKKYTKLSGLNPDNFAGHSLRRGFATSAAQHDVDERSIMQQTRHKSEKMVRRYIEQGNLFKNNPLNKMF
Particulars: HEK293T inversion; background 6.51.

Series [2] concerns T2, Rec2 WP_006717173.1 (Aggregatibacter segnis).
T2 sequence: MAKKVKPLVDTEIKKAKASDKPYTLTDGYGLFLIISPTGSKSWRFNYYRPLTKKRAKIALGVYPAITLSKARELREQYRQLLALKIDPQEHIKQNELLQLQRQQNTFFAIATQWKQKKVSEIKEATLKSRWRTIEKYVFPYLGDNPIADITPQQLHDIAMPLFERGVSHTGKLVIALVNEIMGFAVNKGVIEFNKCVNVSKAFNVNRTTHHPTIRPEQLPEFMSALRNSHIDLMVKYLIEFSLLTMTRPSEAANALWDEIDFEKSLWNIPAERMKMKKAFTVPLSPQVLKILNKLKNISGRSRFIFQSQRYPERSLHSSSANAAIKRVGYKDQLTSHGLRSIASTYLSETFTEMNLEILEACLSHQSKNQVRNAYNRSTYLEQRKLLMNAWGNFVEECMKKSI
The conditions noted are these: HEK293T inversion; background 0.2565; repeat 0.27 vs 0.265.

Series [3] relates to T3, Rec6 WP_006717195.1 (Aggregatibacter segnis).
T3 sequence: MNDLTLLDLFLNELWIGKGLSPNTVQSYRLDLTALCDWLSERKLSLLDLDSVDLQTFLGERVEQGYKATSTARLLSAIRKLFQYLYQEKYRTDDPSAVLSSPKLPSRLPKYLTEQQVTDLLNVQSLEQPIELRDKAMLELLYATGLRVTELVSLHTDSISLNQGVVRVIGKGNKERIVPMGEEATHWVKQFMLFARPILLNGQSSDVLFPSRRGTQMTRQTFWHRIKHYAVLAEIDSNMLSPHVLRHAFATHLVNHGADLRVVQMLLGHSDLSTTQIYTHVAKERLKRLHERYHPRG
The conditions noted are these: HEK293T inversion; background 0.2565.

Series [4] has as its system T4, Rec7 WP_005715799.1 (Aggregatibacter segnis).
T4 sequence: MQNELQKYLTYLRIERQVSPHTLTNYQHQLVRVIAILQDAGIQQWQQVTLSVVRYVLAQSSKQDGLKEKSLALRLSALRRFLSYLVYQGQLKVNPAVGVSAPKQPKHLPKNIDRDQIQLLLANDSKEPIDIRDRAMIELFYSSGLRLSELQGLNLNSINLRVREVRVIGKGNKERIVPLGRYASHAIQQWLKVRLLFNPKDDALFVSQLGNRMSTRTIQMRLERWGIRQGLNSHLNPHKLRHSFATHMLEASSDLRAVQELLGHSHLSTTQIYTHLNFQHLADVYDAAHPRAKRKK
The conditions noted are these: HEK293T inversion; background 0.2565.

Series [5] relates to T5, Rec5 WP_109859198.1 (Aggregatibacter segnis).
T5 sequence: T3 sequence with S40G, N201D
Particulars: HEK293T inversion; background 0.265.

Series [6] deals with T6, Rec3 WP_006718580.1 (Aggregatibacter segnis).
T6 sequence: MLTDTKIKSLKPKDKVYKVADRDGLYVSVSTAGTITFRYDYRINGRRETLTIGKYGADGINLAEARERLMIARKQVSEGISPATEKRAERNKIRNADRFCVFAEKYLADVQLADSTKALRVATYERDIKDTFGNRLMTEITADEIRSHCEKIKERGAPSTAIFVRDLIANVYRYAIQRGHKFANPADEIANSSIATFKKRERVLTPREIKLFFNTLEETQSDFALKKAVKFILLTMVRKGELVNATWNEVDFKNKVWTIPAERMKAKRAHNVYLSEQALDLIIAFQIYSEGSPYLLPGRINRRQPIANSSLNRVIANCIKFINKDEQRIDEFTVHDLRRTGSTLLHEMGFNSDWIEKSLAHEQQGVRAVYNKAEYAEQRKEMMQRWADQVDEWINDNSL
The conditions noted are these: HEK293T inversion; background 0.2565.

Series [7] concerns T7, Rec4 WP_006719234.1 (Aggregatibacter segnis).
T7 sequence: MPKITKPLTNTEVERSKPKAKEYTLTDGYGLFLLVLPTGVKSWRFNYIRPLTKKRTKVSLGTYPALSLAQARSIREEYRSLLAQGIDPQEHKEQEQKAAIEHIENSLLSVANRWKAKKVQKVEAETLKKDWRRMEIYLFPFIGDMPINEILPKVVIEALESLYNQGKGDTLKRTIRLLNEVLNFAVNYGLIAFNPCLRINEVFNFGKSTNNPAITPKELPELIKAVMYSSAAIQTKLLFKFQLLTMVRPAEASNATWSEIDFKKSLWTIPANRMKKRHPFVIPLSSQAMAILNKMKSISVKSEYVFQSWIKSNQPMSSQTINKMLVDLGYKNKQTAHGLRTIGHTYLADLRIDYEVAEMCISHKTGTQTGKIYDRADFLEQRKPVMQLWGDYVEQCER
The conditions noted are these: HEK293T inversion; background 0.2565.

Series [8] relates to T8, Rec12 WP_038150898.1 (Veillonella montpellierensis).
T8 sequence: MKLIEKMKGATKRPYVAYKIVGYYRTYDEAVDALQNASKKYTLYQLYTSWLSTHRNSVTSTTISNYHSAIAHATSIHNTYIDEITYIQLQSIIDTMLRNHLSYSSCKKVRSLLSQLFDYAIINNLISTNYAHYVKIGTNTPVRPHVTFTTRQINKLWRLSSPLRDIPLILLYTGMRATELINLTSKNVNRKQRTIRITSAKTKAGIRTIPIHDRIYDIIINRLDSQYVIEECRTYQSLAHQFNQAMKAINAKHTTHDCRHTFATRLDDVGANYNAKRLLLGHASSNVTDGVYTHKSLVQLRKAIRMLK
The conditions noted are these: HEK293T inversion; background 0.07465.

Series [9] relates to T9, Rec11 WP_038150996.1 (Veillonella montpellierensis).
T9 sequence: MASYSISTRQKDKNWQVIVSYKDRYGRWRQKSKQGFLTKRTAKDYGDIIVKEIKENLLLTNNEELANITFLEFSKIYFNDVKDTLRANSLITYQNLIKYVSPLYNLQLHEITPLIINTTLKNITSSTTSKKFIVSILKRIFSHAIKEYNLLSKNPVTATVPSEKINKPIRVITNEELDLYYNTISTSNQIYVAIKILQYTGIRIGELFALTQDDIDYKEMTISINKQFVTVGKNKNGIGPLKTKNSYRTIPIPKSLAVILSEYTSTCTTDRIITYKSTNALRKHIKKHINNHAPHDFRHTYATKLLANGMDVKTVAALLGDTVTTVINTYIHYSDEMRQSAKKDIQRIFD
Particulars: HEK293T inversion; background 0.07465.

Series [10] deals with T10, Rec9 WP_017744257.1 (Scytonema hofmannii).
T10 sequence: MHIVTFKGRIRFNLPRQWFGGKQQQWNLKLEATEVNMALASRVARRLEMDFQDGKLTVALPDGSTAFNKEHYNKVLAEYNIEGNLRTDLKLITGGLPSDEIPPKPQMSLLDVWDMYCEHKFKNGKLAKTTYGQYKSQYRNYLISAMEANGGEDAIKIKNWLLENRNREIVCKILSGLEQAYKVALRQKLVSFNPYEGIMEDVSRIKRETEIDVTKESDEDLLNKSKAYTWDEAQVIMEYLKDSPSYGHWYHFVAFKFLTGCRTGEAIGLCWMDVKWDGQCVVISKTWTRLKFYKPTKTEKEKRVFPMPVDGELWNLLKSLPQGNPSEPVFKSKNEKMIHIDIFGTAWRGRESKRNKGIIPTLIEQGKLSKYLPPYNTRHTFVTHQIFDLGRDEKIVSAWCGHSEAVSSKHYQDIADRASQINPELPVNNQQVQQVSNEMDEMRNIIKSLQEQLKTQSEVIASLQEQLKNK
Particulars: HEK293T inversion; background 0.264.

Series [11] deals with T11, Rec10 WP_017746151.1 (Scytonema hofmannii).
T11 sequence: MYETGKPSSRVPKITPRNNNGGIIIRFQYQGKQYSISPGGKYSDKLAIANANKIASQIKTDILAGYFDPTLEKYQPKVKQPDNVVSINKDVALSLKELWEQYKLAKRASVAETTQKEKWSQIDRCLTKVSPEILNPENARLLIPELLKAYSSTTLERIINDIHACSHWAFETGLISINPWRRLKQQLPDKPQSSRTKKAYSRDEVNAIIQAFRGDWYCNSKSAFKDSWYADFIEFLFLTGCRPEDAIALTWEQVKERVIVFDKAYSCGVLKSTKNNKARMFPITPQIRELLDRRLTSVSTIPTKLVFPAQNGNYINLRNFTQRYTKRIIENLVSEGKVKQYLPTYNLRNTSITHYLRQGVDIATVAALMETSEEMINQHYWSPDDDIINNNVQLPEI
Particulars: HEK293T inversion; background 0.264.

Series [12] concerns T12, Rec8 WP_017740000.1 (Scytonema hofmannii).
T12 sequence: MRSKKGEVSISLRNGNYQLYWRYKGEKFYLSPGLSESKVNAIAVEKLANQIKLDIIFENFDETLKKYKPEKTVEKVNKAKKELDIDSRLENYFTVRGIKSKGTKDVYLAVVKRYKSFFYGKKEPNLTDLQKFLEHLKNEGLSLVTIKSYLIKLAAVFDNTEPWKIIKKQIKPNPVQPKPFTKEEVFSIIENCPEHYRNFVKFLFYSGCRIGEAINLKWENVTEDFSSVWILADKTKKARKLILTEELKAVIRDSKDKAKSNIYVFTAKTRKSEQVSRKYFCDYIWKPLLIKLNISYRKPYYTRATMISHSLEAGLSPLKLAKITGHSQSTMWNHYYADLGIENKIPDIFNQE
Particulars: HEK293T inversion; background 0.264.

Series [13] has as its system T13, Rec13 WP_126045042.1 (Candidatus Aquarickettsia).
T13 sequence: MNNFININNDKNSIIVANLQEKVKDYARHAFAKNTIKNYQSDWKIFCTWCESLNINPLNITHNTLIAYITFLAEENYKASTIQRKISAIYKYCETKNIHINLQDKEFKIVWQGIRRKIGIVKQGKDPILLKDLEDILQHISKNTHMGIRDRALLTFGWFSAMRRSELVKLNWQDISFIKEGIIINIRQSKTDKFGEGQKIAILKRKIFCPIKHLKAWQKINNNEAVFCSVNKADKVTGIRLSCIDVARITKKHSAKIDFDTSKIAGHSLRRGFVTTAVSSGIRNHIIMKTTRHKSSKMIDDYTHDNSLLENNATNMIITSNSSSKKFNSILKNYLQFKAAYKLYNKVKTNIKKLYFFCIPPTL
Particulars: HEK293T inversion; background 5.795.

The test system of series [14] is T14, Rec15 XP_012333305.1 (Plasmodium fragile).
T14 sequence: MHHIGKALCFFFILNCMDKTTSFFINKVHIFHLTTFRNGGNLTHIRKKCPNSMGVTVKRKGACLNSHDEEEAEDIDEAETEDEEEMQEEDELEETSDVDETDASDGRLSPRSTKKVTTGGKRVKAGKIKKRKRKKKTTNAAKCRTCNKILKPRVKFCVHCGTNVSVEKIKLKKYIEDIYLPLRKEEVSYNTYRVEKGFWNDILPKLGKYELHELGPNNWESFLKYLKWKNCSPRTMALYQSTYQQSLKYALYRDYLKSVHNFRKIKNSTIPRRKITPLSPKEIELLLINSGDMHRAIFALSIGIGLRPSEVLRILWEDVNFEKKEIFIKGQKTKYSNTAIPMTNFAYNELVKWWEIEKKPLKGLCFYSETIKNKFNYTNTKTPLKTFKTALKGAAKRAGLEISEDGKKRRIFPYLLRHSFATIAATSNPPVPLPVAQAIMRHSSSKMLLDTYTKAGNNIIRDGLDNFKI
Particulars: HEK293T inversion; background 2.178.

The sequence “TAACTAATGATANNNNNNNNNTATCACTAGTTG (double strand) [Rec27 natural site]” registered an activity in series [1] of 62.7 % GFP+.

Turning to “AATAAAGGGAATNNNNNNNNATTCCCTTTATT (double strand) [Rec2-7 natural site]”, the activity was found to be 0.133 % GFP+ in series [2]; 0.135 % GFP+ in [3]; 0.108 % GFP+ in series [4]; 0.195 % GFP+ in series [5]; 0.096 % GFP+ in series [6]; 0.134 % GFP+ in series [7].

Regarding “CACTGATATATANNNNNNNTATATATCAGTG (double strand) [Rec11-12 natural site]”, the activity in series [8] stood at 0.031 % GFP+; in series [9], 0.0237 % GFP+.

On to “CAATTTTTGAAANNNNNNNTTTCAAAAATTG (double strand) [Rec8-10 natural site]”, for which the activity in series [10] came to 0.133 % GFP+; in [11] it was 0.168 % GFP+; in series [12], 0.165 % GFP+.

For the sequence “TAATGTTCTATANNNNNNNNTATAAAACACTA (double strand) [Rec13 natural site]”, the activity in series [13] was 4.46 % GFP+.

As to “TGCATATACATANNNNNNNNTATATATATGTA (double strand) [Rec15 natural site]”, in series [14], the activity is 5.91 % GFP+.
